In one assay the target is T1, BTLA triple mutant (3NQ) (human, UniProt Q7Z6A9 31-289, limits assumed).
T1 construct: N to Q read from the label
T1 chain: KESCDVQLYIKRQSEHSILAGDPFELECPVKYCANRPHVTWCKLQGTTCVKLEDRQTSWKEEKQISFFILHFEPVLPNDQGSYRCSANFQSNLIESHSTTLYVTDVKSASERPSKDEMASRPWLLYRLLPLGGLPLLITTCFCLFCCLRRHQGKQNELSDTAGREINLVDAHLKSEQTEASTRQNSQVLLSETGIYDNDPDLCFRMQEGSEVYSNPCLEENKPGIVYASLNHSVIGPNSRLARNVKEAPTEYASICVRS
The assay can be described thus: Western blot. The method, then:
(§1) Immunoblot analysis was performed as described previously (Lim et al., 2008, Gastroenterology, 135:21 28-40; and Lee et al., 2007, Cell, 130:440-455). Image acquisition and quantitation of band intensity were performed using a Chemdoc Imager (BioRad, Hercules, Calif., US). The secondary antibodies were anti-mouse or -rabbit Alexa Fluor 488 or 594, and nuclei were stained with 4′,6-diamidino-2-phenylindole (DAPI) (Life Technologies, Carlsbad, Calif., US).
(§2) In the Western blot assays, anti-BTLA mAbs were tested for their ability to recognize fully glycosylated wild-type BTLA and to recognize certain BTLA mutants lacking two (N75/2NQ, N94/2NQ, N116/2NQ) or all three (3NQ) of BTLA's N-glycosylation sites. […] Generally, the band intensities shown in the Western blots of FIG. 2 indicate the specific glycosylation motif recognized by each of the tested antibodies and the binding strength of the tested antibodies to the recognized glycosylation motifs.
In general terms: In western blotting, separated proteins are transferred to a membrane and probed.

In assay [1] the target is T2, N75/2NQ (human, UniProt Q7Z6A9).
T2 construct: double mutant, single glycosylation site N75; One member of the group m43; also called BTLA double mutant that retains only the N75 glycosylation site
The assay can be described thus: Western blot of BTLA WT and glycosylation-site mutants probed with STC613 [continued]. The method, then:
as §1, §2

The target of assay [2] is T2, N75/2NQ. Description: Western blot of BTLA WT and glycosylation-site mutants probed with STC626 [continued]. The method, then: as §1, §2

B1: STC613 (antibody, V domains shown)
VH: EVQLQQSGAELVRPGASVKLSCTASGFNIRDDYVHWLKQRPDQGLEWIGRIDPANGKTKYDPKFQDKATITADTSSNTAYLQLSSLTSEDTAVYFCVREGGSNYDYAMDYWGQGTSVTVSS
VL: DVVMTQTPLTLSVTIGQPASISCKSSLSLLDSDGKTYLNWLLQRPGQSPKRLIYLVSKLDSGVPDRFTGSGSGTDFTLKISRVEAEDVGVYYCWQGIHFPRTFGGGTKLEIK
notes: also called STM613
In the case of B1, the binding result was “no binding” with BTLA triple mutant (3NQ) and “binds” in the assay with N75/2NQ [1].

B2: STC626 (antibody, V domains shown)
VH: QIQLVQSGPELKKPGETVKISCKASGYTFTNYGMNWVKQAPGKGLKWMGWINTNTGEPTYAEEFKGRIAFSLESSASTAYLQINNLKNEDTATYFCAREGVRRGGYFFDYWGQGTTLTVSS
VL: DIQMTQSPASLSVSVGETVTITCRASENIYSNLAWYQQKQGKSPQLLVYAATNLADGVPSRFSGSGSGTQYSLKINSLQSEDFGSYHCQHFWGFPFTFGAGTKLEIKR
Consider B2, for which the values for the binding result with BTLA triple mutant (3NQ) and with N75/2NQ [2] were “no binding” and “binds”, respectively.

(Values after patent publication US20180264110A1 (STSCIENCES, published 2018).)
